Assay results as given in patent US20040086946A1, “Methods of isolation of active compounds and activated targets” (priority 2002, published 2004).
Each block holds one molecule with its values, some of them ahead of it. No end group written: not given here.

Tests used:
scFv-P2Y6 = assay: Activation of scFv-P2Y6 in HEK293 cells, aequorin luminescence; type: cell-based, human; details: non-anchored agonists
From the text: A fusion protein was constructed between a single chain antibody against fluorescein (Boder et al. (2000) Proc. Natl. Acad. Sci. USA 97:10701-5) (docking domain) and the human P2Y6 receptor (GenBank accession number: NP_004145) (active domain). The target fusion protein, termed scFv-P2Y6, was co-transfected with the calcium-sensitive luminescent protein aequorin into HEK293 cells. After two days, the transfected cells were pre-loaded for two hours with the aequorin substrate coelenterazine (Molecular Probes) and then various amounts of UDP, UTP or ATP were added immediately followed by measurement of luminescence (FIG. 5A). The activation profile of these three agonists on the fusion protein closely mimicked their activation of the unfused P2Y6 receptor (not shown). […] In contrast to ATP alone, an anchored compound, a fluorescein-ATP conjugate (FITC-ATP; Perkin-Elmer), was able to activate the scFv-P2Y6 receptor at low concentrations (FIG. 5B) with a half-maximal stimulation occurring at about 10 nM.

melanocortin receptors = details: cited from earlier work
FcR-MC4R = target: T1, FcR-MC4R (Homo sapiens, UniProt P12314+P32245); assay: Inhibition by AGRP of FcR-MC4R activation, CRE-luciferase reporter; type: cell-based
T1 construct: extracellular domain (residues 1-292, with its own signal peptide) of human Fc-gammaR1 = CD64 (NM_000566); expressed in transfected cells; host or cells: HEK293
T1 sequence (P12314+P32245 fused): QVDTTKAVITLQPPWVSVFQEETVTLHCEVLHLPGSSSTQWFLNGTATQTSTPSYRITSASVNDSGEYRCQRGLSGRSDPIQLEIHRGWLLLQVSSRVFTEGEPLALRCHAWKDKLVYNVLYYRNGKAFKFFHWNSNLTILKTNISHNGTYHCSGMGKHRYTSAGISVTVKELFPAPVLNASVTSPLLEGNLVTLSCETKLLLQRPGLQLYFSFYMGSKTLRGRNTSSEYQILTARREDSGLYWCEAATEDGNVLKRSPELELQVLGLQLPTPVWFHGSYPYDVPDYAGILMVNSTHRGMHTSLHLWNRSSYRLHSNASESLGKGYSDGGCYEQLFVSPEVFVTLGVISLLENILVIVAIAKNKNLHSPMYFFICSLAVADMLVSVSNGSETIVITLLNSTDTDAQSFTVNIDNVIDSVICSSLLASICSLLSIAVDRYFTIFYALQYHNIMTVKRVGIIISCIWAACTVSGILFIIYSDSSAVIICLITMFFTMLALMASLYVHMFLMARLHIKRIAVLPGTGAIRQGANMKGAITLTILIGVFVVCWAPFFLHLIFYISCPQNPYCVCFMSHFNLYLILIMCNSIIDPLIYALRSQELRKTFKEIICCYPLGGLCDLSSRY
Experimental: Activation of FcR-MC4R was assayed 6 hours after compound addition using a co-transfected CRE-luciferase construct (pCRE-Luc; Stratagene) and measuring luminescence after lysis and addition of the luciferase substrate (Tropix Luciferase Assay Kit).

[1] = target: FcR-MC4R fusion protein (human); assay: cell-based or functional assay
FcR-MC4R fusion protein (human), sequence (P12314 other isoform, or with tags, fused parts or gaps, form in doubt): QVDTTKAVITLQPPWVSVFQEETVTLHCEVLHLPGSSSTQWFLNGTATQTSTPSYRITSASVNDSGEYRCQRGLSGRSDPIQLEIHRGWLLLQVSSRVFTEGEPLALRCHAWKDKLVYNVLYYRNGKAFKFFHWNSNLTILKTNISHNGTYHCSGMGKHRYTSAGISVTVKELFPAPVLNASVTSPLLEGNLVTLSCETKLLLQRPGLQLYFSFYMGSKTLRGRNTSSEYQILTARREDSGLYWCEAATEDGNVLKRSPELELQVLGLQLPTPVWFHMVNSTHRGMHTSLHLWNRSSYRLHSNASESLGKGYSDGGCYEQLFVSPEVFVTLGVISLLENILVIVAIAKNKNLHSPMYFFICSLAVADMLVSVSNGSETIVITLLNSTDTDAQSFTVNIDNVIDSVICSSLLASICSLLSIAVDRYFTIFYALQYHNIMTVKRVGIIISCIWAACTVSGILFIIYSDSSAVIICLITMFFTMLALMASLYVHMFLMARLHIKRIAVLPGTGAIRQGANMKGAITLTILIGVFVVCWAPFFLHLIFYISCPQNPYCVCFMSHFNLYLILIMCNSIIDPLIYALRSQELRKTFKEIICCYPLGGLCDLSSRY

[2] = tested on: Alpha1-mc4r, Alpha2-MC4R, OGH-MC4R and HCG-MC4R; assay: Glycoprotein hormone subunit-based extracellular 2-hybrid screen, CRE-luciferase reporter in HEK293 cells; type: cell-based; details: relative to no ligand control; two days after transfection
Alpha1-mc4r, Alpha2-MC4R, OGH-MC4R and HCG-MC4R, sequence (P32245 whole entry): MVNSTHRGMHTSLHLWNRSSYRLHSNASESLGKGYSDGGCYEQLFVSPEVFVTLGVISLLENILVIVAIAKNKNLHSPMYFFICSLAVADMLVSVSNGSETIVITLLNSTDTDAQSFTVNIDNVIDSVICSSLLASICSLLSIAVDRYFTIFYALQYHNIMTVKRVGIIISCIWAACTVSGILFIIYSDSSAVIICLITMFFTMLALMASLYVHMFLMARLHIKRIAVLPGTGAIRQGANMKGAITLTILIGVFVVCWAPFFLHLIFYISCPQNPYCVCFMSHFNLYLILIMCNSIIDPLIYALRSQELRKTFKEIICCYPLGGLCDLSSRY
Experimental: Signal sequences were included at the beginning of each construct.
Two days after transfection, the activity of the target fusion protein was measured by assaying luciferase activity as relative light units (Y axis, FIG. 7) on a luminometer.

[3] = target: FcR-MC4R fusion protein (human); assay: cell-based or functional assay; remark: listed apart in the source

Molecule: Nc1ncnc2c1ncn2[C@@H]1O[C@H](COP(=O)(O)OP(=O)(O)OP(=O)(O)O)[C@@H](O)[C@H]1O [ATP]
activation of scFv-P2Y6 (relative potency in words) (scFv-P2Y6): required much higher concentrations

Molecule: O=c1ccn([C@@H]2O[C@H](COP(=O)(O)OP(=O)(O)O)[C@@H](O)[C@H]2O)c(=O)[nH]1 [UDP]
activation of scFv-P2Y6 (relative potency in words) (scFv-P2Y6): most potent activator

Molecule: O=c1ccn([C@@H]2O[C@H](COP(=O)(O)OP(=O)(O)OP(=O)(O)O)[C@@H](O)[C@H]2O)c(=O)[nH]1 [UTP]
activation of scFv-P2Y6 (relative potency in words) (scFv-P2Y6): required much higher concentrations

Molecule: His Phe Arg Trp [HFRW]
activation of melanocortin receptors (melanocortin receptors): fully activate melanocortin receptors, but only at very high concentrations

Molecule: agouti-related protein (SSRRCVRLHESCLGQQVPCCDPCATCYCRFFNAFCYCRKLGTAMNPCSRT; UniProt O00253 83-132, looked up) [AGRP, known antagonist of the MC4 receptor]
effect of increasing amounts of inhibitor on stimulation by HFRW-Fc (FcR-MC4R; FcR-MC4R activated with anchored agonist HFRW-Fc): dramatically reduce the maximal stimulation levels
effect of increasing amounts of inhibitor on α-MSH dose response (FcR-MC4R; FcR-MC4R activated with natural agonist α-MSH): shift the dose response curve of α-MSH progressively to the right

amount of compound for half-maximal stimulation of MC4R (CRE-luciferase) [1]: 100 fold less
Molecule: α-MSH-Fc (from UniProt P01189 138-150) (Fc fusion)

B1: alpha2: glycoprotein hormone subunit alpha2 as anchor component fused to HFRW via a 13 amino acid spacer (protein)
chain: QEAVIPGCHLHPFNVTVRSDRQGTCQGSHVAQACVGHCESSAFPSRYSVLVASGYRHNITSVSQCCTISGLKKVKVQLQCVGSRREELEIFTARACQCDMCRLSRY
binding between anchor and docking glycoprotein hormone subunits, seen as increased MC4R activity [2]: binds to OGH, hCG, and itself

half maximal level of the response (activation of MC4R, CRE-luciferase reporter, transiently transfected HEK293 cells) [3]: < 1 nM
Molecule: HFRW-Fc (Fc fusion, part only; not given: Fc and linker, not shown: a dimerising Fc or GST, also: Fc junction, isotype and linker not given here) [HFRW-Fc]
